Data taken from article PMC314469, “Protein Interaction Networks by Proteome Peptide Scanning” (PLoS Biology, 2004).

T1: amphyphisin SH3 (AMPH_HUMAN), P49418
T1 chain: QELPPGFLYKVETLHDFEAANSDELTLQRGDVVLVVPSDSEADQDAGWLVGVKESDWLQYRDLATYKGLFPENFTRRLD


Legend:
[1] = biological target: T1, amphyphisin SH3 (AMPH_HUMAN), P49418; experiment: SPOT array
[2] = biological target: endophilin SH3 (SH3G2_HUMAN), Q99962; experiment: SPOT array

| Binder | normalised SPOT signal, Boehringer light units (BLU); mean over the file's lines of this peptide [1] | normalised SPOT signal, Boehringer light units (BLU); mean over the file's lines of this peptide [2] |
| --- | --- | --- |
| PFGQLKRPRRNGLG [Q9NUE2 170-183] | 510 | 67.8 |
| PGEHPGRPGRGGSV [Q13577 1110-1123] | 414 | 31.7 |
| PGFSLKRPRGLSRS [Q99640 37-50] | 40.1 | 41.8 |
| PGLAPKRPLETGPR [Q96BF6 185-198] | 31.4 | 1350 |
| PEYRPKRPANQFVP [P13862 172-185] | 24.8 | 238 |
| PSTLPRRPPVPSGQ [Q9Y215 243-257] | 309 | 2140 |
| PDPGFLRPQRAALY [Q9UGB8 1078-1091] | 986 | 310 |
| PFRALKRPLQFLGL [O00156 318-331] | 28.1 | 63.7 |
| PFFAPKRPFFPPRY [O75048 890-903] | 215 | 3080 |
| PGGSPRRPPALAGP [P58401 8-21] | 46.4 | 241 |
| PSSRPRRPAVYTSV [Q9UKQ9 224-237] | 39.7 | 260 |
| PDETLRRPGGPQYG [Q14289 406-419] | 24.5 | 12.2 |
| ARRGPGRPRKRKHS [Q9P281 735-748] | 121 | 231 |
| PGGKPERPPKPGPP [P51511 339-353] | 570 | 4460 |
| PEVYLKRPAHSDDW [O14939 368-381] | 33 | 28.5 |
| PERLLLRPARIRAD [Q9BXY2 295-308] | 1020 | 106 |
| PEDAPKRPKEAAPD [Q9NUE8 153-166] | 19.3 | 23.2 |
| PSPAPPRPARVPAH [Q13078 876-889] | 2020 | 3100 |
| PGHSPRRPRPLGLS [Q16538 521-534] | 45.1 | 2830 |
| PGPAPKRPRGGGAG [Q06587 167-180] | 38.5 | 348 |
| PEPELSRPIRHHPD [Q01459 44-57] | 98.6 | 116 |

| Binder | normalised SPOT signal, Boehringer light units (BLU); mean over the file's lines of this peptide [1] | normalised SPOT signal, Boehringer light units (BLU); mean over the file's lines of this peptide [2] |
| --- | --- | --- |
| PSYHILRPSRNQDL [Q9BR43 91-104] | 412 | 426 |
| PDQGPQRPPPEGLL [Q16378 41-55] | 24.4 | 62.3 |
| PDHRPPRPPQPPPP [P51511 326-340] | 548 | 1370 |
| PFHSLKRPRPPFAR [O75048 874-887] | 65.6 | 228 |
| PEVQLRRPNWSKLV [O60610 754-767] | 35.6 | 152 |
| PEVGPWRPKRLSGV [Q9NPU4 88-101] | 4730 | 2400 |
| PDVWLRRPSTHTSG [Q9C0C1 1172-1185] | 60.1 | 242 |
| PEIFLKRPVVEGNR [Q13393 385-398] | 32.1 | 95.5 |
| PGDSPAKPPEGSAG [Q8WXD9 428-442] | 52.2 | 72.5 |
| PGAGLRRPTYTPPS [O15209 277-290] | 31.8 | 171 |
| PEAVPGKPPFAEPD [Q9BYN7 703-717] | 71.4 | 63.8 |
| PGPFPPRPPGPLGP [Q9BW18 356-370] | 68.3 | 1930 |
| AARGLRRPEDSSRK [Q9H5N7 170-183] | 18 | 3.6 |
| ARRPLARPIKPNEI [O94825 179-192] | 92.1 | 136 |
| PDPAIRRPAEKFLE [P55060 21-34] | 35.9 | 52.2 |
| ARRPLARPIKRGDI [O94844 155-168] | 227 | 265 |
| PSLTPRRPSSTRAR [Q16623 232-245] | 869 | 1390 |
| PGNIPQRPDRLPMS [Q9P2I2 89-102] | 2130 | 360 |
| PESEIERPERLTAA [Q9UGX2 21-34] | 124 | 281 |
| ARRLLVRPARLRRH [Q9UIC6 53-66] | 1340 | 67.4 |
| PDIPPPRPPKPHPA [Q13480 337-351] | 635 | 6240 |
